Measurements: patent publication US5770191, “Active C-terminal peptides of interferon--gamma and their use” (University of Florida, dated 1998)

T1: murine IFNγ receptor (murine, UniProt P15261)
T1 sequence: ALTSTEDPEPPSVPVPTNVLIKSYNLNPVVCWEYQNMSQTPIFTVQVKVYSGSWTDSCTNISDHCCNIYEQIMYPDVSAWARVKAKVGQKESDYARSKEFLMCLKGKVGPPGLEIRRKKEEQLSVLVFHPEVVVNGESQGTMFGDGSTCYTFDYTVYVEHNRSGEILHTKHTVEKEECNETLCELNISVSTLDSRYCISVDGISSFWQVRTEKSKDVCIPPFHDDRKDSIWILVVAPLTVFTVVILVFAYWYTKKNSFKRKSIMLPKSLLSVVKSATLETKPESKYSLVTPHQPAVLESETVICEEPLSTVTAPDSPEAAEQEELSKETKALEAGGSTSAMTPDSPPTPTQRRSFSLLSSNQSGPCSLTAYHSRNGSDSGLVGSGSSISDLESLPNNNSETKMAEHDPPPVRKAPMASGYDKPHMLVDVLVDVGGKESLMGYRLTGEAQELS

B1: muIFNγ (95-133) (peptide)
peptide: AKFEVNNPQVQRQAFNELIRVVHQLLPESSLRKRKRSRC
B2: huIFNγ (95-134) (peptide)
peptide: LTNYSVTDLNVQRKAIHELIQVMAELSPAAKTGKRKRSQM

Target: T1, murine IFNγ receptor
Experiment: cell-based or functional assay

Row | Binder | Ia (MHC class II) expression on P388D1 cells by FACS, peptide at 100 µM, 24 hours
1 | B1 | 10 fold
2 | B2 | 10 fold
